According to article PMC9670692:

Substrate: NC(=O)C[C@H](N)C(=O)O
Assay: purified protein
Conditions: PBS pH 7.2, 37 °C, 1-200 mM asparagine

B1: PtAsp2like1 (Picrophilus oshimae DSM 9789) (protein)
chain: MNVIMLHGGAGSTGVEQKLMEYAVKSKSGSALDSVCNAVVLMENDPCFNAGTGSCMRLDGSIQMDAAVMTSKGFGSVMAIENVKNPVLVARAVMERSPHLIMAGDGAEKFAHLLGFEKYDPSTERAAKRRENDISMILSRKIDSYNKMMETVDISKFVDTVGAVARVNGEFAAAVSTGGAPPMLRGRVGDSPVPGAGIFCGENGAVVATGVGEEIIKNMLCISIYNEIGRESLSKIVMKNISRFRYHAGVIAVSNEEYFAYSNTDMSYAALEF
Km: 11.69 mM
kcat: 0.056 s⁻¹
